Results as given in US20210171598A1, “PEPTIDE HORMONE WITH ONE OR MORE O-GLYCANS” (priority 2017, published 2021).
No end group written: not given here. *: point of attachment. diST = diST O-glycan, CC(=O)N[C@@H]1[C@@H](O[C@@H]2O[C@H](CO)[C@H](O)[C@H](O[C@]3(C(=O)O)C[C@H](O)[C@@H](NC(C)=O)[C@H]([C@H](O)[C@H](O)CO)O3)[C@H]2O)[C@@H](O)[C@@H](CO[C@]2(C(=O)O)C[C@H](O)[C@@H](NC(C)=O)[C@H]([C@H](O)[C@H](O)CO)O2)O[C@@H]1*; code T = T O-glycan (Galβ1-3GalNAc), CC(=O)N[C@@H]1[C@@H](O[C@@H]2O[C@H](CO)[C@H](O)[C@H](O)[C@H]2O)[C@@H](O)[C@@H](CO)O[C@@H]1*; ST = sialylated T O-glycan

B1: ANP with one O-glycan (GalNAc/Tn) at residue 19 (peptide)
peptide: SLRRSSCFGGRMDRIGAQSGLGCNSFRY
modifications: not fully specified (residue 19); ends and bridges not checked
B2: ANP with one O-glycan (GalNAc/Tn) at residue 25 (peptide)
peptide: SLRRSSCFGGRMDRIGAQSGLGCNSFRY
modifications: not fully specified (residue 25); ends and bridges not checked
B3: ANP with ST O-glycan at residue 19 (peptide)
peptide: SLRRSSCFGGRMDRIGAQS(ST)GLGCNSFRY
modifications: ends and bridges not checked
B4: ANP with diST O-glycan at residue 25 (peptide)
peptide: SLRRSSCFGGRMDRIGAQSGLGCNS(diST)FRY
modifications: not fully specified (bridges); ends and bridges not checked
B5: ANP with T O-glycan at residue 25 (peptide)
peptide: SLRRSSCFGGRMDRIGAQSGLGCNS(code T)FRY
modifications: ends and bridges not checked
B6: ANP with diST O-glycan at residue 19 (peptide)
peptide: SLRRSSCFGGRMDRIGAQS(diST)GLGCNSFRY
modifications: not fully specified (bridges); ends and bridges not checked
B7: ANP with ST O-glycan at residue 25 (peptide)
peptide: SLRRSSCFGGRMDRIGAQSGLGCNS(ST)FRY
modifications: ends and bridges not checked
B8: ANP with T O-glycan at residue 19 (peptide)
peptide: SLRRSSCFGGRMDRIGAQS(code T)GLGCNSFRY
modifications: ends and bridges not checked

What was measured:
male Sprague Dawley rats = assay: Acute cardiovascular and renal actions of i.v. infusion in anesthetized rats; assay type: in vivo; conditions: rat
Source text: The protocol is outlined in FIG. 9A.
Rats were then subjected to vessel and bladder cannulation for peptide infusion, BP measurement, blood sampling and urine collection. A polyethylene (PE)-5G tube catheter was placed into the jugular vein for inulin, peptide intravenous infusion. The carotid artery was cannulated with a PE-50 tube catheter for BP measurement (Sonometrics, London, Ontario, Canada) and blood sampling. The bladder was accessed and cannulated with a PE-50 tube catheter for passive urine collection. After completion of the above procedural set up, a 45 min equilibration period was performed that included continuous IV inulin and saline infusion. After the 45 min equilibration period, baseline (Time==Q min) parameters were recorded and one blood sampling (0.7 ml) was performed. The inulin and saline infusion was replaced by a continuous intravenously (i.v.) infusion of equimolar ANP-Ser19/ST or ANP-Ser25/ST for 60 min. The infusion rate was weight adjusted and equals weight*0.7/6000 ml/min. After 60 min infusion (Time=60 min), another blood sampling (0.7 ml) was conducted. […] Urine was collected at the end of the infusion (Time=60 min) and the study (Time=90 min). Urinary sodium was measured with pHOx Ultra (Nova Biomedical, Waltham, Mass.). Urine flow (UV) and urinary sodium excretion (UNaV) were calculated as urine volume or sodium clearance per min, Inulin concentrations were measured with enthrone method and inulin clearance was used for GFR quantification. Urinary cGMP and ANP excretion rate was calculated based on raw values obtained in the urine and UV.

neprilysin (NEP) = neprilysin (NEP) (Homo sapiens, UniProt P08473); assay: In vitro degradation by neprilysin, MALDI-TOF time course; conditions: 37° C., MALDI-TOF
neprilysin (NEP), sequence (P08473 whole entry): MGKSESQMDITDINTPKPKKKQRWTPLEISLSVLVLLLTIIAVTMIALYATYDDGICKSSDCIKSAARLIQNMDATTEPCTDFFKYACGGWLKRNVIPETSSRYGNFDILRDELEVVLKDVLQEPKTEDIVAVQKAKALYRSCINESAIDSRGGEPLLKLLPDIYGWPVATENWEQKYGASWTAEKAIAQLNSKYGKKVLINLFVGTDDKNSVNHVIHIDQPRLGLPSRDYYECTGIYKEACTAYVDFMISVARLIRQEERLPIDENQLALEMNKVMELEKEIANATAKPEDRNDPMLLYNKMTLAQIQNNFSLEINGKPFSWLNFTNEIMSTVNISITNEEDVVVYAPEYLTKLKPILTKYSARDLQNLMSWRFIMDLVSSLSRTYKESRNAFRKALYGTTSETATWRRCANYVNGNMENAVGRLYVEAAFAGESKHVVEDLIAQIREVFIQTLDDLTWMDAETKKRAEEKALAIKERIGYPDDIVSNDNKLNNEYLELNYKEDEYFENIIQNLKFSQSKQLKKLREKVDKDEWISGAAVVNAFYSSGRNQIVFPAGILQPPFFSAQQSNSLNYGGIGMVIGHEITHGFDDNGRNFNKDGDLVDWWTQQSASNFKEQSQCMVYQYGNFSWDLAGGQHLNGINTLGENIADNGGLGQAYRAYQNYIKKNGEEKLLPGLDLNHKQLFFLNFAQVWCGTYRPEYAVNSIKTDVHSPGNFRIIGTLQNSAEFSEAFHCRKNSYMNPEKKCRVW
Description: (§1) Many peptide hormones are destined for endocrine circulation where they are rapidly degraded with half-lives reaching only a few minutes^6-8.
(§2) For enzymatic degradation assays using either NEP or DPP-IV (R&D systems, UK), an enzyme titration was carried out to ensure full degradation within one hour of reaction time.
(§3) MALDI-TOF-MS was performed on a Bruker Autoflex instrument (Bruker Daltonik GmbH, Bremen, Germany) by mixing the quenched aliquots with a saturated solution of α-Cyano-4-hydroxycinnamic acid in ACN/H2O/TFA (70:30:0.1) at a ratio 1:1 on a target steel plate and mass-spectra were acquired in linear mode.
Reactions were performed in 50 mM Tris, 0.05% Brij-35, pH 9 (Neprilysin), or 50 mM Tris, 20 mM NaCl, pH 7.5 (IDE) and incubated at 37° C.

[1] = molecular target: dipeptidyl peptidase IV (DPP-IV) (Homo sapiens, UniProt P27487); assay: In vitro degradation by DPP-IV, MALDI-TOF time course
dipeptidyl peptidase IV (DPP-IV), sequence (P27487 whole entry): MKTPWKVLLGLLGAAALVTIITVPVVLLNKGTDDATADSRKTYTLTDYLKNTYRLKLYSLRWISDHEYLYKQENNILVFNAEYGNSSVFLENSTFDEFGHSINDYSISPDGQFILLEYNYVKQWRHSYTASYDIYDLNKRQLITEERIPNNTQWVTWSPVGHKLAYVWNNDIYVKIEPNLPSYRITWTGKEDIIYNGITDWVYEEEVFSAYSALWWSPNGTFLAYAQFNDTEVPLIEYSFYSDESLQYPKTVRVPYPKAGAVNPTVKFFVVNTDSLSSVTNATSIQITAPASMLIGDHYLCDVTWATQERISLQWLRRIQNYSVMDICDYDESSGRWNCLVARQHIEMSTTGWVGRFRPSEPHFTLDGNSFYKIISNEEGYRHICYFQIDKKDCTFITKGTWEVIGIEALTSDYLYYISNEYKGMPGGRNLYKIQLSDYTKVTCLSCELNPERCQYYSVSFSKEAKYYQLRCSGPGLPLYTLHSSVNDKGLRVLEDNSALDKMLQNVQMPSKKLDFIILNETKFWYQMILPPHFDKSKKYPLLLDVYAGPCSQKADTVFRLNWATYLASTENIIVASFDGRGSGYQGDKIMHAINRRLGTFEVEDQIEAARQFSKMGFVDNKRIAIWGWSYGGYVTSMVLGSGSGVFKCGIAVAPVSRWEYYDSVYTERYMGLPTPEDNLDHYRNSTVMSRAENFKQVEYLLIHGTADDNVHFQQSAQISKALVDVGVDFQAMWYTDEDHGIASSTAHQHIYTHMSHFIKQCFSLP
Description: as §1, §2, §3

NPR-A receptor = molecular target: T1, NPR-A receptor (UniProt P16066 33-1061, limits assumed); assay: cell-based or functional assay
T1 sequence (looked up): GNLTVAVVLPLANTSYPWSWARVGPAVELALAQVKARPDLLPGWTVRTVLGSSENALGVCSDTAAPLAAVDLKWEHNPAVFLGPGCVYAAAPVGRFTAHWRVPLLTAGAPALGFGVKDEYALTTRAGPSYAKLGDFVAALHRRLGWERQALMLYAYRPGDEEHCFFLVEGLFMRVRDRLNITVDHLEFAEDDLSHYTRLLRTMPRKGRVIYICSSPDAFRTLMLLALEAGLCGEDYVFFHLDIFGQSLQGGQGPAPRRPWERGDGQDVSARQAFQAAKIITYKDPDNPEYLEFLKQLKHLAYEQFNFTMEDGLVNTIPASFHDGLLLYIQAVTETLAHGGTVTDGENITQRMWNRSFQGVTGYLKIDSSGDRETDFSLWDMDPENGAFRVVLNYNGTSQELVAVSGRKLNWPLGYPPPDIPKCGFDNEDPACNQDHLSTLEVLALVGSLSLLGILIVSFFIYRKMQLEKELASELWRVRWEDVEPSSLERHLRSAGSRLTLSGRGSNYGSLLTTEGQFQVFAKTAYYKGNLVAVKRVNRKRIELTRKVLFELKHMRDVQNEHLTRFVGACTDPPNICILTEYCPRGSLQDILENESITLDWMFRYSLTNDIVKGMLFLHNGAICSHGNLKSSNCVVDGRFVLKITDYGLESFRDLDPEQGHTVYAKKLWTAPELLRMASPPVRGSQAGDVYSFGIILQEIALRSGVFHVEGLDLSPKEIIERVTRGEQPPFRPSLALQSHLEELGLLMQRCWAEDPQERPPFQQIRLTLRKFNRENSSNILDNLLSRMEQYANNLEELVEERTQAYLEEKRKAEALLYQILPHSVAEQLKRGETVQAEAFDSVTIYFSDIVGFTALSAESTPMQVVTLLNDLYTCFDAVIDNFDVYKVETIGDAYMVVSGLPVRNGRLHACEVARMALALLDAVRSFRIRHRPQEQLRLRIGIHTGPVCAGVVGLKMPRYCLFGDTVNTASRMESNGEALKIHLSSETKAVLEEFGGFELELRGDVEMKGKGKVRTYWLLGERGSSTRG

[2] = 600 pmol/kg/min i.v., 60 minutes infusion

| Molecule | reduction in efficacy, cGMP generated (NPR-A receptor) [%] | increase in efficacy, cGMP generated (NPR-A receptor) [%] | potency, cGMP generated (HTRF) (NPR-A receptor) [nM] | also measured |
| --- | --- | --- | --- | --- |
| CC[C@H](C)[C@@H]1NC(=O)[C@H](CCCNC(=N)N)NC(=O)[C@H](CC(=O)O)NC(=O)[C@H](CCSC)NC(=O)[C@H](CCCNC(=N)N)NC(=O)CNC(=O)CNC(=O)[C@H](Cc2ccccc2)NC(=O)[C@@H](NC(=O)[C@H](CO)NC(=O)[C@H](CO)NC(=O)[C@H](CCCNC(=N)N)NC(=O)[C@H](CCCNC(=N)N)NC(=O)[C@H](CC(C)C)NC(=O)[C@@H](N)CO)CSSC[C@@H](C(=O)N[C@@H](CC(N)=O)C(=O)N[C@@H](CO)C(=O)N[C@@H](Cc2ccccc2)C(=O)N[C@@H](CCCNC(=N)N)C(=O)N[C@@H](Cc2ccc(O)cc2)C(=O)O)NC(=O)CNC(=O)[C@H](CC(C)C)NC(=O)CNC(=O)[C@H](CO[C@H]2O[C@H](CO)[C@H](O)[C@H](O[C@@H]3O[C@H](CO)[C@H](O)[C@H](O[C@]4(C(=O)O)C[C@H](O)[C@@H](NC(C)=O)[C@H]([C@H](O)[C@H](O)CO)O4)[C@H]3O)[C@H]2NC(C)=O)NC(=O)[C@H](CCC(N)=O)NC(=O)[C@H](C)NC(=O)CNC1=O [ANP-Ser19/ST] | – | – | – | change in mean arterial pressure (MAP) over the infusion period (male Sprague Dawley rats; [2]): decrease; change in plasma cGMP over the infusion period (male Sprague Dawley rats; [2]): increase; MAP in the 30 minutes clearance period (male Sprague Dawley rats; after 60 min infusion): sustained or further reduced; effect on diuresis and natriuresis (male Sprague Dawley rats; i.v. infusion): did not result in increased diuresis nor natriuresis |
| CC[C@H](C)[C@H](NC(=O)[C@H](Cc1ccccc1)NC(=O)[C@H](CCC(=O)O)NC(=O)[C@H](CCCCN)NC(=O)[C@H](C)NC(=O)[C@H](C)NC(=O)[C@H](CCC(N)=O)NC(=O)CNC(=O)[C@H](CCC(=O)O)NC(=O)[C@H](CC(C)C)NC(=O)[C@H](Cc1ccc(O)cc1)NC(=O)[C@H](CO)NC(=O)[C@H](CO)NC(=O)[C@@H](NC(=O)[C@H](CC(=O)O)NC(=O)[C@H](CO)NC(=O)[C@@H](NC(=O)[C@H](Cc1ccccc1)NC(=O)[C@@H](NC(=O)CNC(=O)[C@H](CCC(=O)O)NC(=O)[C@H](C)NC(=O)[C@@H](N)Cc1c[nH]cn1)[C@@H](C)O)[C@@H](C)O[C@H]1O[C@H](CO)[C@H](O)[C@H](O[C@@H]2O[C@H](CO)[C@H](O)[C@H](O[C@]3(C(=O)O)C[C@H](O)[C@@H](NC(C)=O)[C@H]([C@H](O)[C@H](O)CO)O3)[C@H]2O)[C@H]1NC(C)=O)C(C)C)C(=O)N[C@@H](C)C(=O)N[C@@H](Cc1c[nH]c2ccccc12)C(=O)N[C@@H](CC(C)C)C(=O)N[C@H](C(=O)N[C@@H](CCCCN)C(=O)NCC(=O)N[C@@H](CCCNC(=N)N)C(N)=O)C(C)C [GLP-1-Thr7/ST] | – | – | – | remained (completely) intact after incubation with NEP (neprilysin (NEP)): 60 min; remained fully intact after/until incubation with DPP-IV [1]: 120 min |
| CC[C@H](C)[C@H](NC(=O)[C@H](CO)NC(=O)[C@H](CC(N)=O)NC(=O)[C@H](CC(C)C)NC(=O)[C@H](Cc1ccc(O)cc1)NC(=O)[C@H](CCCCN)NC(=O)[C@H](CCCCN)NC(=O)[C@@H](NC(=O)[C@H](C)NC(=O)[C@H](CCSC)NC(=O)[C@H](CCC(N)=O)NC(=O)[C@H](CCCCN)NC(=O)[C@H](CCCNC(=N)N)NC(=O)[C@H](CC(C)C)NC(=O)[C@H](CCCNC(=N)N)NC(=O)[C@@H](NC(=O)[C@H](Cc1ccc(O)cc1)NC(=O)[C@H](CC(N)=O)NC(=O)[C@H](CC(=O)O)NC(=O)[C@@H](NC(=O)[C@H](Cc1ccccc1)NC(=O)[C@@H](NC(=O)[C@H](C)NC(=O)[C@H](CC(=O)O)NC(=O)[C@H](CO)NC(=O)[C@@H](N)Cc1c[nH]cn1)C(C)C)[C@@H](C)O[C@H]1O[C@H](CO)[C@H](O)[C@H](O[C@@H]2O[C@H](CO)[C@H](O)[C@H](O[C@]3(C(=O)O)C[C@H](O)[C@@H](NC(C)=O)[C@H]([C@H](O)[C@H](O)CO)O3)[C@H]2O)[C@H]1NC(C)=O)[C@@H](C)O)C(C)C)C(=O)N[C@@H](CC(C)C)C(=O)N[C@@H](CC(N)=O)C(N)=O [VIP-Thr7/ST] | – | – | – | remained (completely) intact after incubation with NEP (neprilysin (NEP)): 60 min; partially intact after incubation with DPP-IV [1]: 60 min; remained fully intact after/until incubation with DPP-IV [1]: 30 min |
| B1 | ~20 | – | – | – |
| B2 | – | ~20 | – | – |
| B3 | ~20 | – | 296 | – |
| B4 | – | ~20 | – | – |
| B5 | – | ~20 | 265 | – |
| B6 | ~20 | – | – | – |
| B7 | – | ~20 | 717 | – |
| B8 | ~20 | – | 160 | – |
